# Assay results taken from the Human Domainome abundance scans (Beltran et al. 2025).
# ± gives the uncertainty stated by the source.
# B1: KAT8 regulatory NSL complex subunit 2, residues 28 to 91; numbered along this chain, Q9H9L4 (parent)
# chain: CAFTHRPCSHPRLEGQEFCIKHILEDKNAPFKQCSYISTKNGKRCPNAAPKPEKKDGVSFCAEH
# Variants of: B1
# Test: abundance fitness (aPCA) (normalised: wild type 0, dead -1); higher = more abundant; growth selection in yeast, the domain comes from the species named
# Details: Homo sapiens
row,Variant,abundance fitness
1,CAFTHRPCSHPRLEGQEFCIKHILEDKNAPFKDCSYISTKNGKRCPNAAPKPEKKDGVSFCAEH,-0.238 ± 0.12
2,CAFTHRPCSHPRLEGQEFCIKHILEDKNAPFKECSYISTKNGKRCPNAAPKPEKKDGVSFCAEH,-0.049 ± 0.088
3,CAFTHRPCSHPRLEGQEFCIKHILEDKNAPFKFCSYISTKNGKRCPNAAPKPEKKDGVSFCAEH,-0.217 ± 0.14
4,CAFTHRPCSHPRLEGQEFCIKHILEDKNAPFKGCSYISTKNGKRCPNAAPKPEKKDGVSFCAEH,-0.142 ± 0.063
5,CAFTHRPCSHPRLEGQEFCIKHILEDKNAPFKICSYISTKNGKRCPNAAPKPEKKDGVSFCAEH,-0.124 ± 0.087
6,CAFTHRPCSHPRLEGQEFCIKHILEDKNAPFKKCSYISTKNGKRCPNAAPKPEKKDGVSFCAEH,-0.05 ± 0.061
7,CAFTHRPCSHPRLEGQEFCIKHILEDKNAPFKLCSYISTKNGKRCPNAAPKPEKKDGVSFCAEH,0.004 ± 0.055
8,CAFTHRPCSHPRLEGQEFCIKHILEDKNAPFKMCSYISTKNGKRCPNAAPKPEKKDGVSFCAEH,-0.062 ± 0.056
9,CAFTHRPCSHPRLEGQEFCIKHILEDKNAPFKNCSYISTKNGKRCPNAAPKPEKKDGVSFCAEH,-0.11 ± 0.073
10,CAFTHRPCSHPRLEGQEFCIKHILEDKNAPFKPCSYISTKNGKRCPNAAPKPEKKDGVSFCAEH,-0.036 ± 0.063
11,CAFTHRPCSHPRLEGQEFCIKHILEDKNAPFKRCSYISTKNGKRCPNAAPKPEKKDGVSFCAEH,-0.081 ± 0.053
12,CAFTHRPCSHPRLEGQEFCIKHILEDKNAPFKSCSYISTKNGKRCPNAAPKPEKKDGVSFCAEH,-0.182 ± 0.061
13,CAFTHRPCSHPRLEGQEFCIKHILEDKNAPFKTCSYISTKNGKRCPNAAPKPEKKDGVSFCAEH,0.017 ± 0.099
14,CAFTHRPCSHPRLEGQEFCIKHILEDKNAPFKVCSYISTKNGKRCPNAAPKPEKKDGVSFCAEH,-0.03 ± 0.06
15,CAFTHRPCSHPRLEGQEFCIKHILEDKNAPFKYCSYISTKNGKRCPNAAPKPEKKDGVSFCAEH,-0.071 ± 0.1
16,CAFTHRPCSHPRLEGQEFCIKHILEDKNAPFKQASYISTKNGKRCPNAAPKPEKKDGVSFCAEH,-0.446 ± 0.096
17,CAFTHRPCSHPRLEGQEFCIKHILEDKNAPFKQESYISTKNGKRCPNAAPKPEKKDGVSFCAEH,-0.185 ± 0.073
18,CAFTHRPCSHPRLEGQEFCIKHILEDKNAPFKQFSYISTKNGKRCPNAAPKPEKKDGVSFCAEH,-0.664 ± 0.17
19,CAFTHRPCSHPRLEGQEFCIKHILEDKNAPFKQGSYISTKNGKRCPNAAPKPEKKDGVSFCAEH,-0.339 ± 0.063
20,CAFTHRPCSHPRLEGQEFCIKHILEDKNAPFKQHSYISTKNGKRCPNAAPKPEKKDGVSFCAEH,-0.453 ± 0.092
21,CAFTHRPCSHPRLEGQEFCIKHILEDKNAPFKQISYISTKNGKRCPNAAPKPEKKDGVSFCAEH,-0.56 ± 0.16

row,Variant,abundance fitness
1,CAFTHRPCSHPRLEGQEFCIKHILEDKNAPFKQKSYISTKNGKRCPNAAPKPEKKDGVSFCAEH,-0.484 ± 0.1
2,CAFTHRPCSHPRLEGQEFCIKHILEDKNAPFKQMSYISTKNGKRCPNAAPKPEKKDGVSFCAEH,-0.542 ± 0.089
3,CAFTHRPCSHPRLEGQEFCIKHILEDKNAPFKQNSYISTKNGKRCPNAAPKPEKKDGVSFCAEH,-0.33 ± 0.08
4,CAFTHRPCSHPRLEGQEFCIKHILEDKNAPFKQPSYISTKNGKRCPNAAPKPEKKDGVSFCAEH,-0.346 ± 0.12
5,CAFTHRPCSHPRLEGQEFCIKHILEDKNAPFKQQSYISTKNGKRCPNAAPKPEKKDGVSFCAEH,-0.41 ± 0.12
6,CAFTHRPCSHPRLEGQEFCIKHILEDKNAPFKQRSYISTKNGKRCPNAAPKPEKKDGVSFCAEH,-0.578 ± 0.071
7,CAFTHRPCSHPRLEGQEFCIKHILEDKNAPFKQSSYISTKNGKRCPNAAPKPEKKDGVSFCAEH,-0.321 ± 0.058
8,CAFTHRPCSHPRLEGQEFCIKHILEDKNAPFKQTSYISTKNGKRCPNAAPKPEKKDGVSFCAEH,-0.71 ± 0.097
9,CAFTHRPCSHPRLEGQEFCIKHILEDKNAPFKQVSYISTKNGKRCPNAAPKPEKKDGVSFCAEH,-0.541 ± 0.066
10,CAFTHRPCSHPRLEGQEFCIKHILEDKNAPFKQWSYISTKNGKRCPNAAPKPEKKDGVSFCAEH,-0.674 ± 0.065
11,CAFTHRPCSHPRLEGQEFCIKHILEDKNAPFKQYSYISTKNGKRCPNAAPKPEKKDGVSFCAEH,-0.604 ± 0.093
12,CAFTHRPCSHPRLEGQEFCIKHILEDKNAPFKQCAYISTKNGKRCPNAAPKPEKKDGVSFCAEH,-0.04 ± 0.06
13,CAFTHRPCSHPRLEGQEFCIKHILEDKNAPFKQCCYISTKNGKRCPNAAPKPEKKDGVSFCAEH,0.003 ± 0.11
14,CAFTHRPCSHPRLEGQEFCIKHILEDKNAPFKQCDYISTKNGKRCPNAAPKPEKKDGVSFCAEH,-0.057 ± 0.12
15,CAFTHRPCSHPRLEGQEFCIKHILEDKNAPFKQCEYISTKNGKRCPNAAPKPEKKDGVSFCAEH,-0.014 ± 0.064
16,CAFTHRPCSHPRLEGQEFCIKHILEDKNAPFKQCFYISTKNGKRCPNAAPKPEKKDGVSFCAEH,-0.012 ± 0.069
17,CAFTHRPCSHPRLEGQEFCIKHILEDKNAPFKQCGYISTKNGKRCPNAAPKPEKKDGVSFCAEH,-0.047 ± 0.052
18,CAFTHRPCSHPRLEGQEFCIKHILEDKNAPFKQCHYISTKNGKRCPNAAPKPEKKDGVSFCAEH,-0.333 ± 0.21
19,CAFTHRPCSHPRLEGQEFCIKHILEDKNAPFKQCIYISTKNGKRCPNAAPKPEKKDGVSFCAEH,-0.177 ± 0.095
20,CAFTHRPCSHPRLEGQEFCIKHILEDKNAPFKQCKYISTKNGKRCPNAAPKPEKKDGVSFCAEH,-0.046 ± 0.069
21,CAFTHRPCSHPRLEGQEFCIKHILEDKNAPFKQCLYISTKNGKRCPNAAPKPEKKDGVSFCAEH,-0.14 ± 0.048
